The results in this text go back to US20240272170A1.

Where a chain is given by its changes, count along the chain named. Names may count otherwise.

The labels stand for the following.
T1: HA peptide (Octet assay of PS621 variants)
T1 sequence (peptide): HAKLDEESILKQK

B1: PS557 mutant N41D, Q55R, E63A, V72M, Y100R (SNAP display clone) (designed binder, not shown: large carriers; small tags and cut ends)
chain: MPTAASATESAIEDTPAPARPEVDGRTKPKRQPRYHVVLWDDDDHTYQYVVVMLRSLFGHPPARGYRLAKEMDTQGRVIVLTTTREHAELKRDQIHAFGRDRLLARSKGSMKASIEAEE
modifications: In the selection the protein carried an N-terminal SNAP tag covalently bound to benzylguanine on its own coding DNA; this is not in the letters.
B2: PS557 mutant N41D, Q55R, P62Y, E63T, V72M, Y100R (SNAP display clone) (designed binder, part only)
chain: B1 chain with P62Y, A63T
modifications: N-terminal SNAP tag
B3: PS557 mutant N41D, Q55R, H60I, V72M (SNAP display clone) (designed binder, not shown: large carriers; small tags and cut ends)
chain: B1 chain with H60I, A63E, R100Y
modifications: In the selection the protein carried an N-terminal SNAP tag covalently bound to benzylguanine on its own coding DNA; this is not in the letters.
B4: PS557 mutant N41D, E63S, L68M, V72M, R106H (SNAP display clone) (designed binder, not shown: large carriers; small tags and cut ends)
chain: B1 chain with R55Q, A63S, L68M, R100Y, R106H
modifications: In the selection the protein carried an N-terminal SNAP tag covalently bound to benzylguanine on its own coding DNA; this is not in the letters.
B5: PS557 mutant N41D, Q55R, E63W, V72M, R106H (SNAP display clone) (designed binder, not shown: large carriers; small tags and cut ends)
chain: B1 chain with A63W, R100Y, R106H
modifications: In the selection the protein carried an N-terminal SNAP tag covalently bound to benzylguanine on its own coding DNA; this is not in the letters.
B6: PS557 mutant N41D, Q55R, E63S, L68M, V72M, Y100R (SNAP display clone) (designed binder, not shown: large carriers; small tags and cut ends)
chain: B1 chain with A63S, L68M
modifications: In the selection the protein carried an N-terminal SNAP tag covalently bound to benzylguanine on its own coding DNA; this is not in the letters.
B7: PS796 (designed binder)
chain: B1 chain with R55Q, A63E, R100Y
B8: PS838 (designed binder)
chain: B1 chain with R55Q, P62R, A63E, R100Y
B9: PS801/PS814 (designed binder)
chain: B1 chain with D41N, R55Q, A63K, M72V, R100Y
B10: PS829 (designed binder)
chain: B1 chain with R55Q, P62R, A63E, Q75L, R100Y
B11: PS830 (designed binder)
chain: B1 chain with R55Q, P62R, A63K, Q75L, R100Y
B12: PS847 (designed binder)
chain: B1 chain with A63E, R100Y
B13: PS808 (designed binder)
chain: B1 chain with D41N, A63E, M72V, R100Y
B14: PS831 (designed binder)
chain: B1 chain with D41N, R55Q, P62R, A63K, Q75L, R100Y
B15: PS798 (designed binder)
chain: B1 chain with D41N, R55Q, A63E, Q75L, R100Y
B16: PS828 (designed binder)
chain: B1 chain with R55Q, P62R, A63E, M72V, Q75L, R100Y
B17: PS797 (designed binder)
chain: B1 chain with R55Q, A63E, Q75L, R100Y
B18: PS809 (designed binder)
chain: B1 chain with D41N, R55Q, A63E, R100Y
B19: PS819 (designed binder)
chain: B1 chain with R55Q, A63K, R100Y
B20: PS621 (protein)
chain: MHSKFSHAGRICGAKFKVGEPIYRCKECSFDDTCVLCVNCFNPKDHTGHHVYTTICTEFNNGICDCGDKEAWNHTLFCKAEEG
B21: PS1103 (designed binder)
chain: B20 chain with D32Y
B22: PS1112 (designed binder)
chain: B20 chain with E70T
B23: PS1101 (designed binder)
chain: B20 chain with G19R
B24: PS1116 (designed binder)
chain: B20 chain with G48Y
B25: PS1111 (designed binder)
chain: B20 chain with E70S

In one test the target is N-terminal alanine peptide (SNAP display selection). The test is described as follows: SNAP display, 4 rounds of selection on alanine peptide; NGS abundance in round 4 / naive library.
As for B1, the Enrichment came out at 154.
B2: the Enrichment was determined as 158.
On the same count and under the same terms, with B3 the figure was 320; with B4, 124; with B5, 133.
On the same count and under the same terms, then B6, with 166.

In the next test the target is FA peptide (Octet assay of PS557 variants). Description: Octet (BLI), peptide on sensor, response after 200 s association. For orientation: In BLI a coated tip is dipped into the sample, and binding shifts an interference pattern.
B7 showed an Octet response of 1.37 nm.
Consider B8, for which the Octet response is 0.377 nm.
Regarding B9, the Octet response worked out at 0.00662 nm.
On the same count and under the same terms, then B10, with 0.797 nm.
Take B11: the Octet response is 0.0339 nm.
The same measure, in the same setting: then B12, with 0.059 nm; and B13, with 0.00233 nm.
The molecule B14 gave an Octet response of 0.755 nm.
Turning to B15, the Octet response stood at 1.41 nm.
The molecule B16 returned an Octet response of 0.583 nm.
Still for that read-out and setting: then B17, with 0.202 nm; and B18, with 0.0032 nm.

The next test has as its target MA peptide (Octet assay of PS557 variants). Described as above.
The molecule B7 yielded an Octet response of 8.42 nm.
Same read-out and setting: with B8 the figure was 8.09 nm.
As to B9, the Octet response came out at 1.75 nm.
As for B10, the Octet response was 4.7 nm.
The same measure, in the same setting: with B11 the figure was 2.16 nm; with B19, 3.75 nm; with B12, 3.23 nm.
Still for that read-out and setting: with B13 the figure was 1.88 nm.
The molecule B14 had an Octet response of 4.86 nm.
Still for that read-out and setting: then B15, with 9.37 nm; and B16, with 1.7 nm.
In turn, B17 yielded an Octet response of 8.71 nm.
On the same count and under the same terms, then B18, with 2.23 nm.

The target of another test is IA peptide (Octet assay of PS557 variants). The description is as above.
Molecule B7 displayed an Octet response of 11.6 nm.
In turn, B8 gave an Octet response of 11.2 nm.
Molecule B9 gave an Octet response of 9.02 nm.
Still for that read-out and setting: with B10 the figure was 7.51 nm.
The same measure, in the same setting: then B11, with 6.51 nm; and B19, with 9.06 nm; and B12, with 7.77 nm.
With B13, the Octet response was determined as 9.27 nm.
As for B14, the Octet response came to 10.5 nm.
For B15, the Octet response amounted to 12.7 nm.
The same measure, in the same setting: then B16, with 5.32 nm; and B17, with 11.6 nm.
The same measure, in the same setting: then B18, with 8.52 nm.

For another test, the target named is WA peptide (Octet assay of PS557 variants). The test is described as above.
Molecule B7 displayed an Octet response of 0.761 nm.
Same read-out and setting: with B8 the figure was 0.0581 nm; with B9, 0.0148 nm.
As to B10, the Octet response came to 0.625 nm.
Turning to B12, the Octet response is 0.0098 nm.
B13 had an Octet response of 0.00243 nm.
On the same count and under the same terms, with B18 the figure was 0.0117 nm.

Another test deals with YA peptide (Octet assay of PS557 variants). The description is as above.
For B7, the Octet response worked out at 1.23 nm.
In the case of B8, the Octet response came to 0.59 nm.
Still for that read-out and setting: with B9 the figure was 0.054 nm; with B10, 0.749 nm; with B12, 0.0607 nm.
Still for that read-out and setting: then B13, with 0.0539 nm; and B18, with 0.0027 nm.

The next test concerns the target YRELRLLK after cleavage to N-terminal arginine (RELRLLK). Description: single-molecule dynamic sequencing on chip.
As for B20, the median interpulse duration (IPD) was 10.1 s.

For the next test the target is unchanged. The test is described as follows: on-chip single-molecule dynamic sequencing with PS610, PS961, PS621 and aminopeptidases; median of the RS mean PD distribution; panel YREL.
Molecule B20 showed a median RS mean PD of 0.19 s.

The next test deals with FA peptide (Octet assay of PS557 variants). Description: Octet (BLI), peptide on sensor, response after 200 s association; second PS829 row.
B10: the Octet response was determined as 1.18 nm.

The next test has as its target MA peptide (Octet assay of PS557 variants). Described as above.
B10 displayed an Octet response of 7.86 nm.

The next test concerns the target IA peptide (Octet assay of PS557 variants). Described as above.
B10: the Octet response is 8.85 nm.

Another test addresses T1, HA peptide (Octet assay of PS621 variants). Description: Octet (BLI), 30 C.
For the molecule B21, the Octet response amounted to 0.1.
As to B22, the Octet response stood at 0.1.
On the same count and under the same terms, with B23 the figure was 0.1; with B24, 0.1.
The same measure, in the same setting: then B25, with 0.1.
